Experimental findings from US20070178531A1 (BIOCHECK, published 2007) are described below.

In experiment [1] the target is T1, Mouse Id2: Histidine (mouse, UniProt P41136 1-134, limits assumed).
T1 construct: Fusion protein made in E. coli from vector pGW07; also called m-Id2: His; not shown: His tag
T1 sequence (looked up): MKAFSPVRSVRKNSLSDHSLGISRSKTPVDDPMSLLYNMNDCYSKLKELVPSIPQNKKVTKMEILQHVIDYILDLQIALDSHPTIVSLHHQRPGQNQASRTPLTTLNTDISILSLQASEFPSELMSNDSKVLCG
Kind of experiment: ELISA, Ab 0.100 µg/ml. For orientation: ELISA stands for enzyme-linked immunosorbent assay.

For experiment [2], the target named is T2, glutathione S-transferase (GST) (UniProt P08515 1-218 = GST).
T2 construct: also called carrier protein GST
The experiment is described as follows: ELISA, Ab 0.005 µg/ml.

In experiment [3] the target is T1, Mouse Id2: Histidine. The experiment is described as follows: ELISA, Ab 0.050 µg/ml. On the procedure:
(§1) The rabbit monoclonal anti-human Id3 (clone #3-3) and the rabbit monoclonal anti-mouse/human Id3 (clones #6-1, 16-1, 17-3, and 42-1) produced in Example 6 were tested reactivity against the following antigens: mouse Id1:His, human Id1:His, mouse Id2:His, human Id2:His, mouse Id3:His, human Id3:His, mouse Id4:His, human Id4:His and GST.
(§2) 1. Microtiter wells (prepared in accordance with Example 6) were coated (0.1 μg/well) with mouse Id1:His, human Id1:His, human Id2:His, human Id3:His, and 1.0 μg/well with GST. [0155] 2. Antibody Diluent: 0.25% (w/v) BSA in 0.015M KPO₄ Buffer, 0.85% (w/v) NaCl, 0.1% (w/v) NaN₃, pH=7.40 [0156] 3. Rabbit monoclonal anti-human Id3 (clone #3-3) prepared in Example 7 was diluted to […] with the antibody diluent. […] 4. Rabbit monoclonal anti-mouse/human Id3 (clones #6-1, 16-1, 17-3, 42-1) prepared in Example 7 was diluted to 0.005, 0.010, 0.025, 0.05, 0.10, 0.25, and 0.50 μg/ml with the antibody diluent. […] 5. Conjugate Diluent: 50% (v/v) which consists of an aqueous solution containing Fetal Bovine Serum in 0.05 M Tris, 1% (v/v) Proclin-300, pH 7.6. [0159] 6. Conjugate: Goat anti-rabbit IgG (H+L)-HRP conjugate. [0160] 7. TMB reagent. […] 8. Stop solution (1 N HCI). Method
(§3) 1. Dispense 100 μL of antibody diluent, diluted rabbit monoclonal human Id3, and mouse/human Id3 hybridoma supernatants into appropriate wells. […] 2. Incubate at room temperature with mechanical shaking at 750 rpm for 90 minutes. [0165] 3. Remove the incubation mixture by flicking plate content into an appropriate waste container followed by rinsing the wells 5 times with distilled water. [0166] 4. Strike the wells sharply onto absorbent paper or paper towels to remove all residual water droplets. [0167] 5. Dispense 100 μL of 1:50,000 Goat Anti-Rabbit IgG-HRP Conjugate Reagent into each well. Gently mix for 5 seconds. [0168] 6. Incubate at room temperature with mechanical shaking at 750 rpm for 90 minutes. [0169] 7. Repeat procedures 3 and 4. [0170] 8. Dispense 100 μL of TMB Reagent into each well. Gently mix for 5 seconds. [0171] 9. Incubate at room temperature with mechanical shaking at 750 rpm for 20 minutes. […] 10.

The target of experiment [4] is T3, Mouse Id3: Histidine (mouse, UniProt P41133 1-119).
T3 construct: Fusion protein made in E. coli from vector pGW07; also called m-Id3: His; Mouse Id3 (coated wells); not shown: His tag
T3 sequence: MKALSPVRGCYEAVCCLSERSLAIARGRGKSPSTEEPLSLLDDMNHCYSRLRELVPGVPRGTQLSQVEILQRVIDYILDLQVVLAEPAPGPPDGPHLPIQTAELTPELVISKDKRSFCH
The experiment is described as follows: ELISA, Ab 0.050 µg/ml. The procedure:
as §1, §2, §3

Experiment [5] deals with T4, Mouse Id1: Histidine (mouse, UniProt P20067-2 1-148, limits assumed).
T4 construct: Fusion protein made in E. coli from vector pGW07; also called m-Id1-His; not shown: His tag
T4 sequence (looked up): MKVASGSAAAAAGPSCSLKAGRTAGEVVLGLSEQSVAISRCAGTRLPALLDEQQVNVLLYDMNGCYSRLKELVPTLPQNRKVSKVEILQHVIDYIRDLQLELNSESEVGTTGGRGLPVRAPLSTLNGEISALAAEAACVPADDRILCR
The experiment is described as follows: ELISA, Ab 0.050 µg/ml. On the procedure:
as §1, §2, §3

Another experiment deals with T5, Human Id3: Histidine (human, UniProt Q02535 1-119 at identity 1.00)).
T5 construct: Fusion protein made in E. coli from vector pGW07; also called h-Id3: His; Human Id3 (coated wells); not shown: His tag
T5 chain: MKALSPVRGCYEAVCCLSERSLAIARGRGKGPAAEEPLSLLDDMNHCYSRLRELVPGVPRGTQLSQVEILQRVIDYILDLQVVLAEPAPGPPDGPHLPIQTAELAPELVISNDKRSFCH
The experiment is described as follows: ELISA on coated wells, summary.

For the next experiment, the target named is T6, Human Id1: Histidine (human, UniProt P41134 1-155, limits assumed).
T6 construct: Fusion protein made in E. coli from vector pGW07; also called h-Id1: his; not shown: His tag
T6 sequence (looked up): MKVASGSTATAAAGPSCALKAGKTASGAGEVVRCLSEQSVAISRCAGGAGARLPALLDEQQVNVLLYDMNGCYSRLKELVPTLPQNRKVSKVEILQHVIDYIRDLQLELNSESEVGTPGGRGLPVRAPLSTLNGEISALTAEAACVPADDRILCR
The experiment is described as follows: ELISA on coated wells, summary.

Experiment [6] concerns the target T1, Mouse Id2: Histidine. Kind of experiment: ELISA on coated wells, summary.
The target in experiment [7] is T3, Mouse Id3: Histidine. Kind of experiment: ELISA on coated wells, summary.
A further experiment has as its target T7, Human Id2: Histidine (human, UniProt Q02363 1-134, limits assumed).
T7 construct: Fusion protein made in E. coli from vector pGW07; also called h-Id2: His; not shown: His tag
T7 sequence (looked up): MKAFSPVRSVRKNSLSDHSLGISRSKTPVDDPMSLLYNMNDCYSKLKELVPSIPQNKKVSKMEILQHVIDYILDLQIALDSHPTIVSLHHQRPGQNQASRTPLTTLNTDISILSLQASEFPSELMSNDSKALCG
Kind of experiment: ELISA on coated wells, summary.

Experiment [8] addresses T4, Mouse Id1: Histidine. Kind of experiment: ELISA on coated wells, summary.

T2 sequence (P08515 whole entry): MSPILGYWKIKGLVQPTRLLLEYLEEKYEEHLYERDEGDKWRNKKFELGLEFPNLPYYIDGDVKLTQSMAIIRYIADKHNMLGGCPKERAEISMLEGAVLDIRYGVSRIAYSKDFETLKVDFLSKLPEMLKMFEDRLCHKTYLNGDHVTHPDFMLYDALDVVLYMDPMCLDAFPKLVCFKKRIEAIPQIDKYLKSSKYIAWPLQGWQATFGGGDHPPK

B1: rabbit monoclonal anti-mouse/human Id3, clone #BCH-4/#16-1 (antibody, V domains shown)
VH: QSVEESGGRLVTPGTPLTLTCTASGFSLSSYYIHWVRQAPGKALEWIGYISDGGTTYYASWAKGRFTISKTSSTTVDLKMTSLTTEDTATYFCARQGFNIWGPGTLVTVSL
VL: AVLTQTPSPVSAAVGGTVTISCQSSQSVYNNNWLSWFQQKSGQPPKLLIYETSKLESGVPSRFKGSGSGTQFTLTIIDVQCDDAATYYCLGGYWTTSDNNIFGGGTEVVVK
notes: Rabbit IgG from a rabbit hybridoma; also called m/h Id3 MoAb 16-1
As for B1, the A450 with Mouse Id2: Histidine [1] is 0.055 A450; in [2] it was 0.048 A450; with Mouse Id2: Histidine [3], 0.051 A450; with Mouse Id3: Histidine [4], 1.57 A450; in the experiment with Mouse Id1: Histidine [5], 0.044 A450. Also, the “Cross-reactivity (%)” value with Human Id3: Histidine is 100%; in the experiment with Human Id1: Histidine, below 1%; with Mouse Id2: Histidine [6] it was below 1%; with Mouse Id3: Histidine [7], 100%; in the experiment with Human Id2: Histidine, below 1%; with Mouse Id1: Histidine [8] it was below 1%.

B2: rabbit monoclonal anti-mouse/human Id3, clone #BCH-4/#6-1 (antibody, V domains shown)
VH: QSVEESGGRLVTPGTPLTLTCTASGFSLSNVYIHWVRQAPGKGLEWIGYISDGDTARYATWAKGRFTISKTSSTTVNLKMTSLTTEDTATYFCARQGFNIWGPGTLVTVSL
VL: AVLTQTPSPVSAAVGGTVSISCQSSQSVWNNNWLSWFQQKPGQPPKLLIYETSKLESGVPSRFKGSGSGTQFTLTISDVQCDDAATYYCLGGYWTTSDNNVFGGGTEVVVK
notes: Rabbit IgG from a rabbit hybridoma; also called m/h Id3 MoAb 6-1
Consider B2, for which the A450 was 0.055 A450 in the experiment with Mouse Id2: Histidine [1]; 0.046 A450 in [2]; 0.051 A450 with Mouse Id2: Histidine [3]; 1.75 A450 with Mouse Id3: Histidine [4]; 0.046 A450 with Mouse Id1: Histidine [5]. In addition, the “Cross-reactivity (%)” value in the experiment with Human Id3: Histidine was 100%; with Human Id1: Histidine it was below 1%; in the experiment with Mouse Id2: Histidine [6], below 1%; with Mouse Id3: Histidine [7] it was 100%; in the experiment with Human Id2: Histidine, below 1%; with Mouse Id1: Histidine [8], below 1%.

B3: rabbit monoclonal anti-mouse/human Id3, clone #BCH-4/#17-3 (antibody, V domains shown)
VH: QSVEESGGRLVTPGTPLTLTCTASGFSLSNVYIHWVRQAPGKGLEWIGYISDGDTARYATWAKGRFTISKTSSTTVNLKMTSLTTEDTATYFCARQGFNIWGPGTLVTVSL
VL: AVLTQTPSPVSAAVGGTVSISCQSSQSVWNNNWLSWFQQKPGQPPKLLIYETSKLESGVPSRFKGSGSGTQFTLTISDVQCDDAATYYCLGGYWTTSDNNVFGGGTEVVVK
notes: Rabbit IgG from a rabbit hybridoma; also called m/h Id3 MoAb 17-3; BCH-3/#17-3
With B3, the A450 came out at 0.057 A450 with Mouse Id2: Histidine [1]; 0.048 A450 in experiment [2]; 0.054 A450 with Mouse Id2: Histidine [3]; 2.19 A450 with Mouse Id3: Histidine [4]; 0.048 A450 with Mouse Id1: Histidine [5]. Besides, the “Cross-reactivity (%)” value with Human Id3: Histidine is 100%; in the experiment with Human Id1: Histidine, below 1%; in the experiment with Mouse Id2: Histidine [6] it was below 1%; with Mouse Id3: Histidine [7] it was 100%; with Human Id2: Histidine it was below 1%; with Mouse Id1: Histidine [8], below 1%.

B4: rabbit monoclonal anti-mouse/human Id3, clone #BCH-4/#42-1 (antibody, V domains shown)
VH: QSVEESGGRLVTPGTPLTLTCTASGFSLSSYYIHWVRQAPGKALEWIGYISDGGTTYYASWAKGRFTISKTSSTTVDLKMTSLTTEDTATYFCARQGFNIWGPGTLVTVSL
VL: AVLTQTPSPVSAAVGGTVTISCQSSQSVYNNNWLSWFQQKSGQPPKLLIYETSKLESGVPSRFKGSGSGTQFTLTIIDVQCDDAATYYCLGGYWSTSDNNIFGGGTEVVVK
notes: Rabbit IgG from a rabbit hybridoma; also called m/h Id3 MoAb 42-1
As for B4, the A450 with Mouse Id2: Histidine [1] is 0.058 A450; in [2] it was 0.048 A450; with Mouse Id2: Histidine [3] it was 0.051 A450; with Mouse Id3: Histidine [4], 2.23 A450; in the experiment with Mouse Id1: Histidine [5], 0.05 A450. Further, the “Cross-reactivity (%)” value in the experiment with Human Id3: Histidine was 100%; with Human Id1: Histidine it was below 1%; with Mouse Id2: Histidine [6] it was below 1%; with Mouse Id3: Histidine [7], 100%; in the experiment with Human Id2: Histidine it was below 1%; with Mouse Id1: Histidine [8] it was below 1%.

B5: rabbit monoclonal anti-human Id3, clone #BCH-4/#3-3 (antibody, V domains shown)
VH: QSVEESGGRLVTPGTPLTLTCTVSGIDLSSYAMSWVRQAPGKGLEWIGVIFPSNNVYYASWAKGRFTISKTSTTVDLKITSPTTEDTATYFCASMGAFDSWGPGTLVTVSS
VL: QVLTQTPSPVSAAVGGTVTINCQASQSIYNDNDLAWFQQKPGQPPKLLIYDASTLTSGVPSRFKGSGSGTQFTLTISDLDCDDAATYYCAARYSGNIYGFGGGTEVVVK
notes: Rabbit IgG from a rabbit hybridoma; also called h Id3 MoAb 3-3
With B5, the A450 came to 0.05 A450 with Mouse Id2: Histidine [1], 0.045 A450 in experiment [2], 0.048 A450 with Mouse Id2: Histidine [3] and 0.049 A450 in the experiment with Mouse Id1: Histidine [5].
